Assay results taken from patent US20230277632A1, “MODIFIED PlySs2 LYSINS AND ANTIBIOTIC COMBINATIONS FOR USE AGAINST GRAM-POSITIVE BACTERIA” (ContraFect Corporation, priority 2020, published 2023).

Test system: MSSA strains
Experiment: Checkerboard assay: pp296 or CF-301 with oxacillin
Format: cell-based, Staphylococcus aureus
Details: for FIC: pp296 + oxacillin; for ΣFICmin: with oxacillin
Source text: In some embodiments, the present modified lysin polypeptides reduce the minimum inhibitory concentration (MIC) of an antibiotic. Any known method to assess MIC may be used. In some embodiments, a checkerboard assay is used to determine the effect of a lysin on antibiotic concentration. The checkerboard assay is based on a modification of the CLSI method for MIC determination by broth microdilution (See Clinical and Laboratory Standards Institute (CLSI), CLSI. 2015. Methods for Dilution Antimicrobial Susceptibility Tests for Bacteria That Grow Aerobically; Approved Standard-10th Edition. Clinical and Laboratory Standards Institute, Wayne, Pa., which is herein incorporated by reference in its entirety and Ceri et al. 1999. J. Clin. Microbiol. 37: 1771-1776, which is also herein incorporated by reference in its entirety).
Checkerboards are constructed by first preparing columns of e.g., a 96-well polypropylene microtiter plate, wherein each well has the same amount of antibiotic diluted 2-fold along the horizontal axis. […] The lysin and antibiotic dilutions are then combined, so that each column has a constant amount of antibiotic and doubling dilutions of lysin, while each row has a constant amount of lysin and doubling dilutions of antibiotic. Each well thus has a unique combination of lysin and antibiotic. Bacteria are added to the drug combinations at a given concentration. […] Summation fractional inhibitory concentrations (ΣFICs) are calculated for each drug and the minimum ΣFIC value (ΣFICmin) is used to determine the effect of the lysin/antibiotic combination.
The ability of CF-301 or a modified lysin polypeptide pp296 to synergize with oxacillin was assessed using a checkerboard analysis. For the checkerboard assay, a total of 50 μl of Mueller-Hinton broth is distributed into each well of microdilution plates. Then, a first antibiotic of a combination is serially diluted along the ordinate, while a second drug is diluted along the abscissa. An inoculum equal to a 0.5 McFarland turbidity standard is prepared from each bacterial isolate in Mueller-Hinton broth. Each microtiter well is then inoculated with 100 μl of a bacterial inoculum of 5×10^5 CFU/ml, and the plates are incubated at 37° C. for 18 h under aerobic conditions. The resulting checkerboard contains each combination of two antibiotics, with wells that contain the highest concentration of each antibiotic at opposite corners. […] To quantify the interactions between the antibiotics being tested, the FIC index (the combination of antibiotics that produced the greatest change from the individual antibiotic's MIC) value is calculated for each strain and antibiotic combination as follows:
(A/MICA)+(B/MICB)=FICA+FICB=FIC index,
where A and B are the MIC of each agent in combination in a single well, and MICA and MICB are the MIC of each drug when used individually. The combination is considered strongly synergistic when the FIC index is ≤0.5 and synergistic when the FIC index is >0.5-<1.

B1: pp296: modified PlySs2 lysin, SEQ ID NO: 6: L92W, V104S, V128T, Y137S, Y164K, N184D, S198Q (protein)
chain: MTTVNEALNNVRAQVGSGVSVGNGECYALASWYERMISPDATVGLGAGVGWVSGAIGDTISAKNIGSSYNWQANGWTVSTSGPFKAGQIVTWGATPGNPYGHVSIVEAVDGDRLTILEQNYGGKRYPTRNYYSAASSRQQVVHYITPPGTVAQSAPNLAGSRSKRETGTMTVTVDALNVRRAPDTSGEIVAVYKRGEQFDYDTAIIDVNGYAWVSYIGGSGKRNYVATGATKDGKRFGNAWGTFK
Single agent MICs (MSSA ATCC 29213): 1 µg/mL
Single agent MICs (MSSA JMI-6625): 1 µg/mL
Single agent MICs (MSSA JMI-6885): 1 µg/mL
Single agent MICs (MSSA JMI-6886): 1 µg/mL
Single agent MICs (MSSA JMI-7054): 1 µg/mL
Single agent MICs (MSSA JMI-7160): 1 µg/mL
Single agent MICs (MSSA JMI-38739): 1 µg/mL
Single agent MICs (MSSA JMI-38986): 1 µg/mL
Single agent MICs (MSSA JMI-40671): 1 µg/mL
Single agent MICs (MSSA JMI-46142): 1 µg/mL
FIC (MSSA ATCC 29213): 0.25
FIC (MSSA JMI-6625): 0.0625
FIC (MSSA JMI-6885): 0.25
FIC (MSSA JMI-6886): 0.25
FIC (MSSA JMI-7054): 0.25
FIC (MSSA JMI-7160): 0.25
FIC (MSSA JMI-38739): 0.25
FIC (MSSA JMI-38986): 0.125
FIC (MSSA JMI-40671): 0.25
FIC (MSSA JMI-46142): 0.25
ΣFICmin (MSSA ATCC 29213): 0.5
ΣFICmin (MSSA JMI-6625): 0.3125
ΣFICmin (MSSA JMI-6885): 0.375
ΣFICmin (MSSA JMI-6886): 0.5
ΣFICmin (MSSA JMI-7054): 0.5
ΣFICmin (MSSA JMI-7160): 0.5
ΣFICmin (MSSA JMI-38739): 0.5
ΣFICmin (MSSA JMI-38986): 0.375
ΣFICmin (MSSA JMI-40671): 0.375
ΣFICmin (MSSA JMI-46142): 0.5
